Data from patent US20170260284A1 (NATIONAL CANCER CENTER, published 2017).

T1: human transmembrane protein 180 (TMEM-180), endogenous on human cancer cells (human, UniProt Q14CX5 1-517)
T1 construct: Membrane protein expressed endogenously by human colon cancer lines (DLD-1 and others), brain tumor lines and colon cancer tissue; also called TMEM-180 on DLD-1 cells
T1 sequence: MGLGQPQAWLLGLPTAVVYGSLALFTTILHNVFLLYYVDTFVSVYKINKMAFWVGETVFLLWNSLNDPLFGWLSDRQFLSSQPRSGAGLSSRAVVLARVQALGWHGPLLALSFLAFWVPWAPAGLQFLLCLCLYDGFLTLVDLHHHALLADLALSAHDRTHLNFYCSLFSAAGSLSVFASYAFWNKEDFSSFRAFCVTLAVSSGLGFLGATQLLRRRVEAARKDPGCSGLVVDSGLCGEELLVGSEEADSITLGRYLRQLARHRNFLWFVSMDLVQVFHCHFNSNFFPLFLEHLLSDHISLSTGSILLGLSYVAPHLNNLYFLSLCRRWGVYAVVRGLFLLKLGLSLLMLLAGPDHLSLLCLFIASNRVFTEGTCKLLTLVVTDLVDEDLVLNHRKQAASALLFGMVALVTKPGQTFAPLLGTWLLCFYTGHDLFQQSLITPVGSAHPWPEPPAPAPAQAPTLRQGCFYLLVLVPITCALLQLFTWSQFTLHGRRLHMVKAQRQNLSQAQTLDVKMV

B1: anti-TMEM-180 antibody clone 101 (rat IgM) (antibody, V domains shown)
VH: QVQLKETGPGLVQPTQTLSITCTVSGFSLTSYYMQWVRQTPGKGLEWMGFIRSGGSTEYNSEFKSRLSISRDTSKNQVFLKMNSLKTEDTGVYYCARAFYGGYYFDYWGQGVMVTVSS
VL: DIVMTQSPTSISISVGERVTMNCKASQNVGSNVDWYQQKTGQSPKLLIYKASNRYTGVPDRFTGSGSGTDFTFTISNMQAEDLAVYYCMQSNTKYTFGAGTKLELK
notes: Rat IgM from hybridoma; the entries appear to include a leader and no cleavage site is stated
B2: anti-TMEM-180 antibody clone 212 (rat IgM) (antibody, V domains shown)
VH: EVQLVESGGGLVQPGNSLKLSCAASGFTFSDYAMAWVRQSPKKGLEWVATIIYDGSSTYYRDSVKGRFTISRDNAKSTLYLQMDSLRSEDTATYYCATHWYWYFDFWGPGTMVTVSS
VL: DIQMTQSPASLSASLGETVSIECLASEGISNDLAWYQQKSGKSPQLLIYAASRLQDGVPSRFSGSGSGTRYSLKISGMQPEDEADYFCQQSYKYPLTFGSGTKLEIK
notes: as for B1
B3: rat IgM antibody clone 98 (anti-TMEM-180 antibody clone 98) (antibody, V domains shown)
VH: QVQLKESGPGLVQPSQTLSLTCTVSGFSLTRYNVHWVRQPTGKGLEWMGVIWTGGSTDYNSALKSRLSISRDTSKSQVFLKMNSLQTEDIATYYCARDLGYWGQGVMVTVSS
VL: DIVMTQTPLSLSVAIGQSASISCKSSQSLKYRDGKTYLNWVFQSPGQSPKRLIYQVSKLDSGVPDRFSGTGSETDFTLKISRVEAEDLGVYYCCQGSYSPHTFGAGTKLELK
notes: Rat IgM from hybridoma, used as culture supernatant; also called IgM 98; Anti-TMEM-180 IgM rat antibody (clone 98)
B4: anti-TMEM-180 antibody clone 129 (rat IgG) (antibody, V domains shown)
VH: QIQLVQSGPELKKPGESVKISCKASGYTFTDCALNWVKQAPGNGLKWMGWINTQTGKPTYADDFKQRFVFSLETSASTAYLQINNLNIEDTATYFCTREDYGYFDYWGQGVMVTVSS
VL: DIQMTQSPPSLSASLGDKVTITCQASQNINKFIAWYQQKPGKAPRHLVHYTSTLVSGTPSRFSGSGSGRDYSFSISNVESEDIASYYCLQYDNLRTFGGGTKLELK
notes: the entries appear to include a leader
B5: anti-TMEM-180 antibody clone 1052 (rat IgM) (antibody, V domains shown)
VH: QVQLKESGPGLMQPSETLSLTCTVSGFSLTSNGVGWVRQPLGKGLVWMGTIWTGGGTNYNSGVQSRLSISRDTSKSQVFLKMNSLQPEDTGTYYCAREYMGFDYWGQGVMVTVSS
VL: NTVMTQSPTSMFTSVGDRVTMSCKASQNVGINVGWYQQKTGQSPKRLIYWASNRDTGVPDRFTGSGSGTDFTLTISNMQAEDPAIYYCLQHNSYPRTFGGGTKLELK
notes: as for B4
B6: anti-TMEM-180 antibody clone 1105 (rat IgM) (antibody, V domains shown)
VH: QVQLKESGPGLMQPSETLSLTCTVSGFSLTSNGVGWVRQPLGKGLVWMGTIWSGGGTNYNSAVQSRLSITRDTSKSQVFLKMNSLQPEDTGTYYCAREEKGFAYWGQGTLVTVSS
VL: NIVMTQSPTSMSTSVGDRVTMSCKASQNVGINVGWYQQKTGQSPKRLIYWASNRDTGVPDRFTGSGSGTDFTLTISNMQAEDPAIYYCLQHNSYPRAFGGGTKLELR
notes: as for B4
B7: anti-TMEM-180 antibody clone 699 (rat IgM) (antibody, V domains shown)
VH: QVQLQQSGAELTKPGSSVKISCKASGYTFTSYDISWIKQRPGQALEWIGAINPGSGGTGYNEKFKGKATLTVDKSSSTAFMQLSSLTPEDTAVYYCARIHGGYRYWFAYWGQGTLVTVSS
VL: EIVLTQSPTTMAASPGEKVTITCRASSSVSYMHWFQQKSGTSPKPWIYDTSKLASGVPDRFSGSGSGTSYSLTISSMEAEDAATYYCLQRSSYPPTFGAGTKLELK
notes: as for B4
B8: anti-TMEM-180 antibody clone 382 (rat IgG) (antibody, V domains shown)
VH: EVQLVESGGGLVQPGRSLKLSCAASGFTFSNYGMHWIRQAPTKGLEWVASISPSGGSTYYRDSVKGRFTISRDNAKSTLYLQMDSLRSEDTATYYCATSASITAYYYVMDAWGQGASVTVSS
VL: DIVMTQSPTSMSISVGDRVTMNCKASQNVGSNVDWYQQKTGQSPKLLIYKASNRYTGVPDRFTGSGSGTDFTFTISNMQAEDLAVYYCMQSNSYPPTFGGGTKLELR
notes: as for B4
B9: rat-human chimeric antibody clone 98 (antibody, V domains shown)
VH: QVQLKESGPGLVQPSQTLSLTCTVSGFSLTRYNVHWVRQPTGKGLEWMGVIWTGGSTDYNSALKSRLSISRDTSKSQVFLKMNSLQTEDIATYYCARDLGYWGQGVMVTVSS
VL: DIVMTQTPLSLSVAIGQSASISCKSSQSLKYRDGKTYLNWVFQSPGQSPKRLIYQVSKLDSGVPDRFSGTGSETDFTLKISRVEAEDLGVYYCCQGSYSPHTFGAGTKLELK
notes: Used as culture supernatant diluted two-fold; also called human chimeric IgG antibody

These binders were tested against T1, human transmembrane protein 180 … (assay: flow cytometry on colon cancer and brain tumor cell lines).

Binding result, binds:
B1
B2

What follows are binders tested against T1, human transmembrane protein 180 … (assay: flow cytometry, hybridoma supernatant on DLD-1 cells (selection of clones)).

Binding result, binds:
B3
B4
B5
B6
B7
B8

What follows are binders tested against T1, human transmembrane protein 180 … (assay: flow cytometry, DLD-1 parent line against TMEM-180 knockout line; culture supernatant diluted two-fold).
Experimental: The plate was centrifuged for 3 minutes at 440×g and 4° C. followed by removing the supernatant, adding antibody-producing hybridoma culture supernatant or antibody solution to the cell pellet at 50 μL/well and suspending therein. After allowing to react for 45 minutes on ice, the plate was washed three times with a mixture of 0.1% BSA, 2 mM EDTA and PBS at 200 μL/well. The supernatant was removed and secondary antibody was added to the cell pellet at 50 μL/well followed by suspending the cells therein. AlexaFluor 647 goat anti-rat IgG (H-L) (Life Technologies Corporation) was used for the secondary antibody after diluting 400-fold with a mixture of 0.1% BSA, 2 mM EDTA and PBS. After allowing to react for 45 minutes on ice, the plate was washed three times with a mixture of 0.1% BSA, 2 mM EDTA and PBS at 200 μL/well. […] The cells stained in this manner were measured using a flow cytometer such as the Guava easyCyte 8HT (Merck Millipore Corporation) followed by analysis of the resulting data using FlowJO (Tomy Digital Biology Co., Ltd.). […]
Flow cytometry was carried out in accordance with the procedure described in the above-mentioned section 3. […] Furthermore, antibody concentration in the hybridoma culture supernatant was measured by rat IgM-specific ELISA (Bethyl Laboratories).

Binding result, binds:
B9
